Results taken from PMC4661472.

Key:
[1] = molecular target: tapasin (human), wild type, in HeLa cells (UniProt O15533); assay: co-immunoprecipitation with immunoblot densitometry; conditions: transient transfection of HeLa cells; IP via C-terminal c-Myc tag of TMD0TAP1; three independent experiments
[2] = molecular target: TMD0^TAP1 L70C single-cysteine mutant (M553) (human); assay: cross-linking; crude membranes of M553 cells (tapasin-negative) transfected with single-Cys TMD0^TAP1 without tapasin; 1 mM Cu2+(phenanthroline)3, 10 min, 37 °C; non-reducing SDS-PAGE and immunoblot
[3] = molecular target: TMD0^TAP1 W33C single-cysteine mutant (M553) (human); assay: as above
[4] = molecular target: TMD0^TAP1 L68C single-cysteine mutant (M553) (human); assay: as above
[5] = molecular target: TMD0^TAP1 V67C single-cysteine mutant (M553) (human); assay: as above
[6] = molecular target: TMD0^TAP1 W69C single-cysteine mutant (M553) (human); assay: as above
[7] = molecular target: TMD0^TAP1 V34C single-cysteine mutant (M553) (human); assay: as above
[8] = molecular target: TMD0^TAP1 L107C single-cysteine mutant (M553) (human); assay: as above

Sequence of UniProt O15533 (O15533 21-448): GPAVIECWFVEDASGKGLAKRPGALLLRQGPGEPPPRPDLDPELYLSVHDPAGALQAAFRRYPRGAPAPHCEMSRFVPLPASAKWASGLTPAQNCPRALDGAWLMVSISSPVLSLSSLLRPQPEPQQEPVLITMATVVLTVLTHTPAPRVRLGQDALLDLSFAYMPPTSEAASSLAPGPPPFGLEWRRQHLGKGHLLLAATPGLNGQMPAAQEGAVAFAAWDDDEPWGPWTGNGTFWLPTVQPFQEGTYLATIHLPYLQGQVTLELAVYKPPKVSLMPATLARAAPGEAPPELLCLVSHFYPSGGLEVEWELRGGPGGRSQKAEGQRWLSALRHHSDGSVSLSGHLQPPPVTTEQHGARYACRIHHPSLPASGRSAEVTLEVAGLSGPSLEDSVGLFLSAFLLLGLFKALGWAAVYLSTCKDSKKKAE

Substance | response [1] | further results
TMD0^TAP1 L70C single-cysteine mutant (M553) (domain or fragment) |  | stoichiometry N [2]: 2
TMD0^TAP1 W33C single-cysteine mutant (M553) (domain or fragment) |  | stoichiometry N [3]: 2
TMD0^TAP1, parent of the single-cysteine mutants (Cys-less TAP background) P108C | 29% | 
TMD0^TAP1, parent of the single-cysteine mutants (Cys-less TAP background) W33C | 9% | 
TMD0^TAP1, parent of the single-cysteine mutants (Cys-less TAP background) V67C | 19% | 
TMD0^TAP1 L68C single-cysteine mutant (M553) (domain or fragment) |  | stoichiometry N [4]: 2
TMD0^TAP1, parent of the single-cysteine mutants (Cys-less TAP background) A151C | 47% | 
TMD0^TAP1, parent of the single-cysteine mutants (Cys-less TAP background) W69C | 81% | 
TMD0^TAP1 V67C single-cysteine mutant (M553) (domain or fragment) |  | stoichiometry N [5]: 2
TMD0^TAP1, parent of the single-cysteine mutants (Cys-less TAP background) A31C | 22% | 
TMD0^TAP1, parent of the single-cysteine mutants (Cys-less TAP background) L70C | 27% | 
TMD0^TAP1, parent of the single-cysteine mutants (Cys-less TAP background) L105C | 26% | 
TMD0^TAP1 W69C single-cysteine mutant (M553) (domain or fragment) |  | stoichiometry N [6]: 2
TMD0^TAP1 V34C single-cysteine mutant (M553) (domain or fragment) |  | stoichiometry N [7]: 2
TMD0^TAP1 L107C single-cysteine mutant (M553) (domain or fragment) |  | stoichiometry N [8]: 2
TMD0^TAP1, parent of the single-cysteine mutants (Cys-less TAP background) A150C | 25% | 

Second part, led by results:

response [1] | Substance | further results
17% | TMD0^TAP1, parent of the single-cysteine mutants (Cys-less TAP background) V34C | 
51% | TMD0^TAP1, parent of the single-cysteine mutants (Cys-less TAP background) L68C | 
46% | TMD0^TAP1, parent of the single-cysteine mutants (Cys-less TAP background) L107C | 
0% | TMD0^TAP1, parent of the single-cysteine mutants (Cys-less TAP background) D32C | 
86% | TMD0^TAP1, parent of the single-cysteine mutants (Cys-less TAP background) P149C | 
12% | TMD0^TAP1, parent of the single-cysteine mutants (Cys-less TAP background) L148C | 
42% | TMD0^TAP1, parent of the single-cysteine mutants (Cys-less TAP background) A106C | 
